Measurements taken from PMC3699631, “Posttranslational Modifications of the Histone 3 Tail and Their Impact on the Activity of Histone Lysine Demethylases In Vitro” (PLoS ONE, 2013).

Columns and labels:
cc-KDM4C = experiment: MALDI-TOF-MS demethylation, truncated KDM4C; assay type: biochemical, human
Protocol: (§1) The enzyme kinetics were measured using a Formaldehyde DeHydrogenase Assay (FDH-Assay) and the demethylation of substrates was confirmed when possible by MALDI-TOF-MS, see File S1 for details. The test solution contained 50 mM HEPES (pH 7.5), 50 mM NaCl, 50 µM FeSO4, 500 µM α-KG, 500 µM ascorbate, 2 mM NAD, approximately 0.05 unit of FDH and e.g. 4.88 µM KDM4C (enzyme concentration varied between batches). The reference solution was comprised of the same except substrate. The assay was initiated by adding various concentrations of H3 peptide substrates e.g. H3(1–24)K9me3 (10–1000 µM) and the increase in NADH fluorescence was measured over 15–30 minutes in 30 second intervals. Data analysis and kinetic values were obtained using programs Excel and GraphPad Prism® 5.0. For details, see File S1.
(§2) The reaction mixture was diluted 1: 9 with a saturated solution of α-cyano-4-hydroxycinnamic acid (Aldrich) in a mixture of 65 % acetonitrile and 35 % MilliQ water containing 0.1 % TFA. 1 µl of the sample was spotted onto the target and air dried. The MALDI-TOF MS was carried out on an Ultraflex TOF/TOF (Bruker) operated in positive ion mode with an Ion source voltage of 25 kV, a lens voltage of 7.5 kV and a reflector voltage of 26.3 kV. The system was run in deflection mode with a mass suppression of 500 Da. […]

cc-KDM4A = experiment: MALDI-TOF-MS demethylation, truncated KDM4A; assay type: biochemical, human
Protocol: as §1, §2

human cc-KDM4A = target: T1, human cc-KDM4A (Homo sapiens, UniProt O75164); experiment: competition experiment H3(1–24)K9me3-T11(ph) with H3(1–24)K9me3, truncated KDM4A; assay type: biochemical
T1 construct: Truncated constructs of KDM4A and KDM4C containing only the catalytic cores (cc-KDM4A/cc-KDM4C); made in house
T1 sequence (O75164 1-350 limits assumed): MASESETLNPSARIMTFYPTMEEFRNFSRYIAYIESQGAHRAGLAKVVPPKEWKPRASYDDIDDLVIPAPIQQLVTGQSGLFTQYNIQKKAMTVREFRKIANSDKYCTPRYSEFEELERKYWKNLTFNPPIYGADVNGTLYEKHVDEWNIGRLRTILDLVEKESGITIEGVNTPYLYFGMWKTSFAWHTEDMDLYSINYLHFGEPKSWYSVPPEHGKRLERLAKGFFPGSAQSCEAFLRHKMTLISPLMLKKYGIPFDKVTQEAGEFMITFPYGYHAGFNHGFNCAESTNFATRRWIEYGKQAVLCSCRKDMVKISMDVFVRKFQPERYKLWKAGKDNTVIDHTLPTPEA
Protocol: (§3) To investigate if H3(1–24)K9me3-T11(ph) could bind to the enzyme and act as an inhibitor, a competition experiment with H3(1–24)K9me3 was carried out.
as §1

human cc-KDM4C = target: T2, human cc-KDM4C (Homo sapiens, UniProt Q9H3R0); experiment: competition experiment H3(1–24)K9me3-T11(ph) with H3(1–24)K9me3, truncated KDM4C; assay type: biochemical
T2 construct: Truncated constructs of KDM4A and KDM4C containing only the catalytic cores (cc-KDM4A/cc-KDM4C); made in house
T2 sequence (Q9H3R0 1-349 limits assumed): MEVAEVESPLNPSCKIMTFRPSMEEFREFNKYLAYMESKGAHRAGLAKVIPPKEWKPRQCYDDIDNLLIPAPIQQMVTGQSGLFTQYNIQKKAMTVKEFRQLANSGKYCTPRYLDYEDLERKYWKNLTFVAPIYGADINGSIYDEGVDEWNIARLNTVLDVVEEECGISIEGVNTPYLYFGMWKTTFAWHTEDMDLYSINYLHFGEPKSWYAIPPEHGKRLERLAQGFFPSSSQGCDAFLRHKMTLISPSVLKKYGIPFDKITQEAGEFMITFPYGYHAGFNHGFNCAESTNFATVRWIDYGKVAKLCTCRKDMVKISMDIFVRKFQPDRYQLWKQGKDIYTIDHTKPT
Protocol: as §3, §1

[1] = cc-KDM4A, H3(1–24)K9me3T11(ph) then H3(1–24)K9me3*
[2] = cc-KDM4C, H3(1–24)K9me3T11(ph) then H3(1–24)K9me3*

H3(1–24)K4me3K9me3: bis-tri-methylated substrate, trimethylated K4 in combination with H3K9me3
demethylation by MALDI-TOF-MS (in words) (cc-KDM4C): PTM product between mark K4me3 and mark K9me3
demethylation by MALDI-TOF-MS (in words) (cc-KDM4A): PTM product between mark K4me3 and mark K9me3

H3(1–24)K9me3: truncated histone tail, 24 first amino acids from the N-terminus of H3, trimethylated lysine 9; control peptide
K m (human cc-KDM4A; [1]): 132±23
k cat (human cc-KDM4A; [1]): 1.4±0.08
k cat /K m (human cc-KDM4A; cc-KDM4A, H3(1–24)K9me3T11(ph) then H3(1–24)K9me3*, unit: (min^−1 * µM^−1) * 10^3): 10.6±1.9
K m (human cc-KDM4C; [2]): 43±22
k cat (human cc-KDM4C; [2]): 0.3±0.05

H3(1–24)K9me3T11(ph): H3(1–24)K9me3 with phosphorylation of threonine 11
demethylation by MALDI-TOF-MS (in words) (cc-KDM4C): no detectable turnover
competition / inhibition (in words) (human cc-KDM4A; competition with H3(1–24)K9me3, results not shown, enzyme not named, cc-KDM4A in Table 1): does not act as an inhibitor
competition / inhibition (in words) (human cc-KDM4C; competition with H3(1–24)K9me3, results not shown, enzyme not named, cc-KDM4C in Table 1): does not act as an inhibitor
demethylation by MALDI-TOF-MS (in words) (cc-KDM4A): no detectable turnover
